Reference: patent US20120316071A1 (published 2012)

Assays:
[1] = target: T1, rHuman HGF R/c-MET/Fc Chimera, CF (R&D Systems Cat#358-MT/CF) (human, UniProt P08581 25-932); experiment: MSD ECL multispot assay, antigen spotted on plate, Fab in solution; blank spot of this row 348
T1 construct: Bought recombinant protein; also called HGF R/Fc; not shown: Fc of the bought chimera

[2] = target: T2, rHuman Notch-1/Fc Chimera, CF (R&D Systems Cat#3647-TK) (human, UniProt P46531 19-526); experiment: as above
T2 construct: Bought recombinant protein; not shown: Fc of the bought chimera

[3] = target: T3, rHuman CD44/Fc Chimera, CF (R&D Systems Cat#3660-CD) (human, UniProt P16070 21-220); experiment: as above
T3 construct: Bought recombinant protein; not shown: Fc of the bought chimera

[4] = target: T4, rHuman IGF-1 sR (insulin-like growth factor-1 soluble receptor), CF (R&D Systems Cat#391-GR) (human, UniProt P08069 31-932); experiment: as above
T4 construct: Bought recombinant soluble receptor

[5] = target: T5, rHuman Erythropoietin R/Fc Chimera, CF (R&D Systems Cat#963-ER) (human, UniProt P19235 25-250); experiment: as above
T5 construct: Bought recombinant protein; also called EPO R; EPO R/Fc; not shown: Fc of the bought chimera
T5 sequence (looked up): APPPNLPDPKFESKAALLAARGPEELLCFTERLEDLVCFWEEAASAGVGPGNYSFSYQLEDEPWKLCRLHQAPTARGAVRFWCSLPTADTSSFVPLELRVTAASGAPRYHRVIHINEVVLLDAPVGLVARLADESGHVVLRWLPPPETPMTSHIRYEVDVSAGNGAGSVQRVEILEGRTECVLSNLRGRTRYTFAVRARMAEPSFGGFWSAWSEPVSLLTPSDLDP

[6] = target: T6, Recombinant Human DLL4 (R&D Systems Cat#1506-D4/CF) (human, UniProt Q9NR61 27-524); experiment: as above
T6 construct: Bought recombinant protein; also called delta-like protein 4; rHuman DLL4

[7] = target: T7, rHuman ErbB2/Fc Chimera, CF (R&D Systems Cat#1129-ER) (human, UniProt P04626 23-652); experiment: as above
T7 construct: Bought recombinant protein; not shown: Fc of the bought chimera

[8] = target: T8, rHuman EGF R/Fc Chimera, CF (R&D Systems Cat#344-ER) (human, UniProt P00533 25-645); experiment: as above
T8 construct: Bought recombinant protein; not shown: Fc of the bought chimera

[9] = target: T1, rHuman HGF R/c-MET/Fc Chimera, CF (R&D …); experiment: MSD ECL multispot assay, antigen spotted on plate, Fab in solution; blank spot of this row 504
[10] = target: T2, rHuman Notch-1/Fc Chimera, CF (R&D …); experiment: as above
[11] = target: T3, rHuman CD44/Fc Chimera, CF (R&D Systems …); experiment: as above
[12] = target: T4, rHuman IGF-1 sR (insulin-like growth …); experiment: as above
[13] = target: T5, rHuman Erythropoietin R/Fc Chimera, CF …; experiment: as above
[14] = target: T6, Recombinant Human DLL4 (R&D Systems …); experiment: as above
[15] = target: T7, rHuman ErbB2/Fc Chimera, CF (R&D …); experiment: as above
[16] = target: T8, rHuman EGF R/Fc Chimera, CF (R&D …); experiment: as above
[17] = target: T1, rHuman HGF R/c-MET/Fc Chimera, CF (R&D …); experiment: MSD ECL multispot assay, antigen spotted on plate, Fab in solution; blank spot of this row 278
[18] = target: T2, rHuman Notch-1/Fc Chimera, CF (R&D …); experiment: as above
[19] = target: T3, rHuman CD44/Fc Chimera, CF (R&D Systems …); experiment: as above
[20] = target: T4, rHuman IGF-1 sR (insulin-like growth …); experiment: as above
[21] = target: T9, rHuman P-Cadherin/Fc Chimera, CF (R&D Systems Cat#861-PC) (human, UniProt P22223 108-654); experiment: as above
T9 construct: Bought recombinant protein; not shown: Fc of the bought chimera

[22] = target: T5, rHuman Erythropoietin R/Fc Chimera, CF …; experiment: as above
[23] = target: T6, Recombinant Human DLL4 (R&D Systems …); experiment: as above
[24] = target: T7, rHuman ErbB2/Fc Chimera, CF (R&D …); experiment: as above
[25] = target: T8, rHuman EGF R/Fc Chimera, CF (R&D …); experiment: as above
[26] = target: T10, rHuman Erythropoietin R/Fc Chimera, CF (R&D Systems Cat#963-ER) (human, UniProt P19235 25-250); experiment: ECL Multispot (MSD) binding assay, antigen spotted on plate, Fab in solution
T10 construct: Bought recombinant Fc chimera; also called EPO R; EPO R/Fc; Fc part of the bought chimera not given
T10 sequence (looked up): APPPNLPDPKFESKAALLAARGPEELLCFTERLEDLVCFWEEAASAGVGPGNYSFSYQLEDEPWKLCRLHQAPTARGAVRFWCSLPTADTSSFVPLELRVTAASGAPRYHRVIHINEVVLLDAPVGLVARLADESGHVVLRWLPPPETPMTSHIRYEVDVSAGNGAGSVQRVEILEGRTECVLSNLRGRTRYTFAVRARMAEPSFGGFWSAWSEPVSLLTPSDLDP

[27] = target: T11, Recombinant Human DLL4 (R&D Systems Cat#1506-D4/CF) (human, UniProt Q9NR61 27-524); experiment: as above
T11 construct: Bought recombinant human DLL4; also called delta-like protein 4; Delta-like 4

[28] = target: T12, rHuman ErbB2/Fc Chimera, CF (R&D Systems Cat#1129-ER) (human, UniProt P04626 23-652); experiment: as above
T12 construct: Bought recombinant Fc chimera; also called human epidermal growth factor 2 receptor; Fc part of the bought chimera not given

[29] = target: T13, rHuman EGF R/Fc Chimera, CF (R&D Systems Cat#344-ER) (human, UniProt P00533 25-645); experiment: as above
T13 construct: Bought recombinant Fc chimera; also called epidermal growth factor receptor; Fc part of the bought chimera not given

[30] = target: T14, rHuman HGF R/c-MET/Fc Chimera, CF (R&D Systems Cat#358-MT/CF) (human, UniProt P08581 25-932); experiment: as above
T14 construct: Bought recombinant Fc chimera; also called HGF R/Fc; hepatocyte growth factor receptor; Fc part of the bought chimera not given

[31] = target: T15, rHuman Notch-1/Fc Chimera, CF (R&D Systems Cat#3647-TK) (human, UniProt P46531 19-526); experiment: as above
T15 construct: Bought recombinant Fc chimera; Fc part of the bought chimera not given

[32] = target: T16, rHuman CD44/Fc Chimera, CF (R&D Systems Cat#3660-CD) (human, UniProt P16070 21-220); experiment: as above
T16 construct: Bought recombinant Fc chimera; Fc part of the bought chimera not given

[33] = target: T17, rHuman IGF-1 sR, CF (R&D Systems Cat#391-GR) (human, UniProt P08069 31-932); experiment: as above
T17 construct: Bought recombinant soluble receptor; also called insulin-like growth factor-1 soluble receptor

[34] = target: T18, rHuman P-Cadherin/Fc Chimera, CF (R&D Systems Cat#861-PC) (human, UniProt P22223 108-654); experiment: as above
T18 construct: Bought recombinant Fc chimera; Fc part of the bought chimera not given

B1: Fab VH1-46_IGHD6-6*01_IGHJ1*01 S102A/S103P/S104F/H111F (APFF) & L6_IGKJ1*01 S92C (Fab, V domains shown)
VH: QVQLVQSGAEVKKPGASVKVSCKASGYTFTSYYMHWVRQAPGQGLEWMGIINPSGGSTSYAQKFQGRVTMTRDTSTSTVYMELSSLRSEDTAVYYCAREEYAPFSAEYFQFWGQGTLVTVSS
VL: EIVLTQSPATLSLSPGERATLSCRASQSVSSYLAWYQQKPGQAPRLLIYDASNRATGIPARFSGSGSGTDFTLTISSLEPEDFAVYYCQQRCNWPPWTFGQGTKVEIKR
notes: Fab; also called APFF / S92C
[1]
  ECL signal: 472
[2]
  ECL signal: 439
[3]
  ECL signal: 458
[4]
  ECL signal: 471
[5]
  ECL signal: 601
[6]
  ECL signal: 1340
[7]
  ECL signal: 425
[8]
  ECL signal: 452
[9]
  ECL signal: 616
[10]
  ECL signal: 611
[11]
  ECL signal: 646
[12]
  ECL signal: 666
[13]
  ECL signal: 845
[14]
  ECL signal: 1260
[15]
  ECL signal: 573
[16]
  ECL signal: 638

B2: Fab VH1-46_IGHD6-6*01_IGHJ1*01 S102A/S103P/S104F/H111F (APFF) & L6_IGKJ1*01 S92T (Fab, V domains shown)
VH: QVQLVQSGAEVKKPGASVKVSCKASGYTFTSYYMHWVRQAPGQGLEWMGIINPSGGSTSYAQKFQGRVTMTRDTSTSTVYMELSSLRSEDTAVYYCAREEYAPFSAEYFQFWGQGTLVTVSS
VL: EIVLTQSPATLSLSPGERATLSCRASQSVSSYLAWYQQKPGQAPRLLIYDASNRATGIPARFSGSGSGTDFTLTISSLEPEDFAVYYCQQRTNWPPWTFGQGTKVEIKR
notes: Fab; also called APFF / S92T
[17]
  ECL signal: 290
[18]
  ECL signal: 231
[19]
  ECL signal: 290
[20]
  ECL signal: 308
[21]
  ECL signal: 387
[22]
  ECL signal: 424
[23]
  ECL signal: 54100
[24]
  ECL signal: 237
[25]
  ECL signal: 295

B3: Fab VH1-46_IGHD6-6*01_IGHJ1*01 S102A/S103P/S104F/H111F (APFF) & L6_IGKJ1*01 S92G (Fab, V domains shown)
VH: QVQLVQSGAEVKKPGASVKVSCKASGYTFTSYYMHWVRQAPGQGLEWMGIINPSGGSTSYAQKFQGRVTMTRDTSTSTVYMELSSLRSEDTAVYYCAREEYAPFSAEYFQFWGQGTLVTVSS
VL: EIVLTQSPATLSLSPGERATLSCRASQSVSSYLAWYQQKPGQAPRLLIYDASNRATGIPARFSGSGSGTDFTLTISSLEPEDFAVYYCQQRGNWPPWTFGQGTKVEIKR
notes: Tested as a Fab made in E. coli; also called APFF / S92G; H:APFF & L6_IGKJ1*01 S92G
[26]
  ECL signal: 543
[27]
  ECL signal: 91400
[28]
  ECL signal: 377
[29]
  ECL signal: 420
[30]
  ECL signal: 287
[31]
  ECL signal: 541
[32]
  ECL signal: 413
[33]
  ECL signal: 323
[34]
  ECL signal: 402
